Results on five molecules are retold here after US20250270327A1.

The target in experiment [1] is HLA-E*01 on THP1 and U937 cells (human).
Experiment [2] has the same target. The experiment can be described thus: mass spectrometry of peptide recovered from immunopurified HLA-E, THP1 cells.
Experiment [3] has the same target. The experiment can be described thus: mass spectrometry of peptide recovered from immunopurified HLA-E, U937 cells.
In experiment [4] the target is HLA-A*02 on THP1 and U937 cells.

Values joined by “and” are separate entries in the source; they are usually repeats but may differ in a detail not shown here. Equal entries are not always repeated. Where two headings read alike, the source gives them in different places.

B1: peptide … (from the HLA-A*03:01 and HLA-A*31:01 genes) (peptide)
peptide: VMAPRTLLL
modifications: not checked
For the molecule B1, the Peptide quantity (min. copies per cell) (copies per cell) in experiment [1] came out at 302.

B2: peptide … from Mycobacterium tuberculosis enoyl-ACP reductase (inhA) (peptide)
peptide: RLPAKAPLL
modifications: not checked
Consider B2, for which the Peptide quantity (min. copies per cell) (copies per cell) in experiment [1] is 52 and 22.

B3: peptide … (from the HLA-C*03:03 gene in THP1, the HLA-C*01:02 gene in U937) (peptide)
peptide: VMAPRTLIL
modifications: not checked
In the case of B3, the Peptide quantity (min. copies per cell) (copies per cell) was determined as 70 in experiment [2] and 877 in experiment [3].

B4: peptide … (from the HLA-C*07:01 gene) (peptide)
peptide: VMAPRALLL
modifications: not checked
For B4, the Peptide quantity (min. copies per cell) (copies per cell) in experiment [4] was determined as 0; in experiment [1], 35.

B5: peptide … (from the HLA-A*02:01 gene) (peptide)
peptide: VMAPRTLVL
modifications: not checked
For B5, the values for the Peptide quantity (min. copies per cell) (copies per cell) in experiment [2] and in experiment [3] were 155 and 586, respectively.
